The text below walks through data of article PMC3260246 (PLoS ONE, 2012).

Changes are numbered by the printed parent chain. In names and notes the source's numbering stands.

The series concerns the molecule itself. Nature of the series: multi-angle light scattering; molar mass and hydrodynamic radius of wild-type and R12A proteins, ASTRA 5.3.4; conditions as in refs 32, 58.

B1: wild-type human αB-crystallin (natural protein, UniProt P02511 1-175, looked up)
chain: MDIAIHHPWIRRPFFPFHSPSRLFDQFFGEHLLESDLFPTSTSLSPFYLRPPSFLRAPSWFDTGLSEMRLEKDRFSVNLDVKHFSPEELKVKVLGDVIEVHGKHEERQDEHGFISREFHRKYRIPADVDPLTITSSLSSDGVLTVNGPRKQVSGPERTIPITREEKPAVTAAPKK
notes: αB-crystallin, human; The reverse primer carries no stop codon; Large oligomer (molar mass about 4.8e5 g/mol by light scattering); also called αBWt; Wt αB-crystallin; source: E. coli BL21(DE3), purified (gel filtration, ion-exchange chromatography)
For the protein B1, the binding result was “binds”.

B2: αB-crystallin R12A mutant (natural protein, human, UniProt P02511 1-175, looked up)
chain: B1 chain with R12A
notes: αB-crystallin, human, R12A made by site-directed mutagenesis on the Wt cDNA in pET23a; Same construct as m3 with R12A; also called αB_(R12A); source: E. coli BL21(DE3), purified (gel filtration, ion-exchange chromatography)
As to B2, the binding result was “binds”.

B3: αA-crystallin R12A mutant (natural protein, human, UniProt P02489 1-173, looked up)
chain: MDVTIQHPWFKATLGPFYPSRLFDQFFGEGLFEYDLLPFLSSTISPYYRQSLFRTVLDSGISEVRSDRDKFVIFLDVKHFSPEDLTVKVQDDFVEIHGKHNERQDDHGYISREFHRRYRLPSNVDQSALSCSLSADGMLTFCGPKIQTGLDATHAERAIPVSREEKPTSAPSS
As to B3, the binding result is “binds”.
